Experimental data: doi:10.1101/2022.03.02.482667 (bioRxiv, 2022)
Read-outs that look alike come from different tables or passages of the source. Where no end group is shown, it is not given here. Ahx = NCCCCCC(=O)O

Legend:
His-tagged G3BP1 NTF2 [1] = target: T1, His-tagged G3BP1 NTF2 (human, UniProt Q13283 1-139); assay: peptide or protein array
[2] = target: G3BP1 NTF2 (1-139) TripleW (F15W/F33W/F124W) (human, UniProt Q13283 1-139, F15W | F33W | F124W); assay: fluorescence polarisation
G3BP1 NTF2 (1-139) S38A = G3BP1 NTF2 (1-139) S38A (human, UniProt Q13283 1-139, S38A); assay: fluorescence polarisation
G3BP1 NTF2 (1-139) S38G = G3BP1 NTF2 (1-139) S38G (human, UniProt Q13283 1-139, S38G); assay: fluorescence polarisation
[3] = target: G3BP1 NTF2 domain (residues 1-139) WT (human, UniProt Q13283 1-139); assay: fluorescence polarisation
G3BP1 NTF2 (1-139) F15W = G3BP1 NTF2 (1-139) F15W (human, UniProt Q13283 1-139, F15W); assay: fluorescence polarisation
G3BP1 NTF2 (1-139) S38T = G3BP1 NTF2 (1-139) S38T (human, UniProt Q13283 1-139, S38T); assay: fluorescence polarisation
[4] = target: G3BP1 NTF2 (1-139) F33/124W (human, UniProt Q13283 1-139, F33W | F124W); assay: fluorescence polarisation
[5] = target: G3BP1 NTF2 (1-139) F15/33W (human, UniProt Q13283 1-139, F15W | F33W); assay: fluorescence polarisation
[6] = target: G3BP1 NTF2 (1-139) F15/124W (human, UniProt Q13283 1-139, F15W | F124W); assay: fluorescence polarisation
His-tagged G3BP1 NTF2 [7] = target: T1, His-tagged G3BP1 NTF2; assay: peptide or protein array; remark: listed apart in the source

T1 sequence (Q13283 1-139): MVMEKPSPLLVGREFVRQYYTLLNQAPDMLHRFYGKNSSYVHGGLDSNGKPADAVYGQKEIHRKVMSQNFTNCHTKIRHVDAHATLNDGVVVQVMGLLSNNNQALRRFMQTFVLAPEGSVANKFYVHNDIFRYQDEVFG
Sequence of G3BP1 NTF2 (1-139) F33/124W (Q13283 1-139 F33W/F124W): as the sequence (Q13283 1-139) above, with F33W, F124W counted along it
Sequence of G3BP1 NTF2 (1-139) S38G (Q13283 1-139 S38G): as the sequence (Q13283 1-139) above, with S38G counted along it
Sequence of G3BP1 NTF2 (1-139) F15W (Q13283 1-139 F15W): as the sequence (Q13283 1-139) above, with F15W counted along it
Sequence of G3BP1 NTF2 (1-139) F15/33W (Q13283 1-139 F15W/F33W): as the sequence (Q13283 1-139) above, with F15W, F33W counted along it
Sequence of G3BP1 NTF2 (1-139) S38A (Q13283 1-139 S38A): as the sequence (Q13283 1-139) above, with S38A counted along it
Sequence of G3BP1 NTF2 (1-139) TripleW (F15W/F33W/F124W) (Q13283 1-139 F15W/F33W/F124W): as the sequence (Q13283 1-139) above, with F15W, F33W, F124W counted along it
Sequence of G3BP1 NTF2 domain (residues 1-139) WT (Q13283 1-139): as the sequence (Q13283 1-139) above
Sequence of G3BP1 NTF2 (1-139) S38T (Q13283 1-139 S38T): as the sequence (Q13283 1-139) above, with S38T counted along it
Sequence of G3BP1 NTF2 (1-139) F15/124W (Q13283 1-139 F15W/F124W): as the sequence (Q13283 1-139) above, with F15W, F124W counted along it

| Binder | binding result (His-tagged G3BP1 NTF2 [1]) | other results |
| --- | --- | --- |
| QGPYRFIQDSMLDFENQTLD [Caprin1 array peptide N371R] | binds |  |
| QGPYSFIQDSMLDFENQTLD [Caprin1 array peptide N371S] | binds |  |
| QGPYTFIQDSMLDFENQTLD [Caprin1 array peptide N371T] | binds |  |
| QGPYVFIQDSMLDFENQTLD [Caprin1 array peptide N371V] | binds |  |
| QGPYYFIQDSMLDFENQTLD [Caprin1 array peptide N371Y] | binds |  |
| QGPYNFFQDSMLDFENQTLD [Caprin1 array peptide I373F] | binds |  |
| QGPYNFIQDCMLDFENQTLD [Caprin1 array peptide S376C] | binds |  |
| QGPYNFIQDSFLDFENQTLD [Caprin1 array peptide M377F] | binds |  |
| QGPYNFIQDSYLDFENQTLD [Caprin1 array peptide M377Y] | binds |  |
| QGPYNFLQDSMLDFENQTLD [Caprin1 array peptide I373L] | binds |  |
| QGPYNFIQESMLDFENQTLD [Caprin1 array peptide D375E] | binds |  |
| QGPYNFIQDSMIDFENQTLD [Caprin1 array peptide L378I] | binds |  |
| {fluorescein-Ahx}-YNFIQDSMLDFE [Caprin1-derived dodecamer reporter peptide F*-YNFIQDSMLDFE] |  | binding result [2]: binds; binding result (G3BP1 NTF2 (1-139) S38A): binds; binding result (G3BP1 NTF2 (1-139) S38G): binds; Kd [3]: 1.7 µM; Kd (G3BP1 NTF2 (1-139) F15W): 9.3 µM; binding result (G3BP1 NTF2 (1-139) S38T): binds; binding result [4]: binds; binding result [5]: binds; binding result [6]: binds |
| HSPQYIFGDFSPDEFNQFFV [native USP10 array peptide HSPQYIFGDFSPDEFNQFFV] |  | binding result (His-tagged G3BP1 NTF2 [7]): binds |
| HSPQYIYGDFSPDEFNQFFV [USP10 array peptide F10Y] |  | binding result (His-tagged G3BP1 NTF2 [7]): binds |
| HSPQYIVGDFSPDEFNQFFV [USP10 array peptide F10V] |  | binding result (His-tagged G3BP1 NTF2 [7]): binds |
| HSPQYILGDFSPDEFNQFFV [USP10 array peptide F10L] |  | binding result (His-tagged G3BP1 NTF2 [7]): binds |
| HSPQYIIGDFSPDEFNQFFV [USP10 array peptide F10I] |  | binding result (His-tagged G3BP1 NTF2 [7]): binds |
| HSPQYIFADFSPDEFNQFFV [USP10 array peptide G11A] |  | binding result (His-tagged G3BP1 NTF2 [7]): binds |

| Binder | binding result (His-tagged G3BP1 NTF2 [1]) | other results |
| --- | --- | --- |
| HSPQYIFGDYSPDEFNQFFV [USP10 array peptide F13Y] |  | binding result (His-tagged G3BP1 NTF2 [7]): binds |
| HSPQYIFGDVSPDEFNQFFV [USP10 array peptide F13V] |  | binding result (His-tagged G3BP1 NTF2 [7]): binds |
| HSPQYIFGDLSPDEFNQFFV [USP10 array peptide F13L] |  | binding result (His-tagged G3BP1 NTF2 [7]): binds |
| HSPQYIFGDISPDEFNQFFV [USP10 array peptide F13I] |  | binding result (His-tagged G3BP1 NTF2 [7]): binds |
| HSPQYIFGDWSPDEFNQFFV [USP10 array peptide F13W] |  | binding result (His-tagged G3BP1 NTF2 [7]): binds |
| QGPYNFIQDSMLDFENQTLD [native Caprin1 array peptide QGPYNFIQDSMLDFENQTLD] | binds |  |
| QGPFNFIQDSMLDFENQTLD [Caprin1 array peptide Y370F] | binds |  |
| QGPYIFIQDSMLDFENQTLD [Caprin1 array peptide N371I] | binds |  |
| QGPYLFIQDSMLDFENQTLD [Caprin1 array peptide N371L] | binds |  |
| QGPYFFIQDSMLDFENQTLD [Caprin1 array peptide N371F] | binds |  |
| QGPYWFIQDSMLDFENQTLD [Caprin1 array peptide N371W] | binds |  |
| QGPYCFIQDSMLDFENQTLD [Caprin1 array peptide N371C] | binds |  |
| QGPYDFIQDSMLDFENQTLD [Caprin1 array peptide N371D] | binds |  |
| QGPYEFIQDSMLDFENQTLD [Caprin1 array peptide N371E] | binds |  |
| QGPYHFIQDSMLDFENQTLD [Caprin1 array peptide N371H] | binds |  |
| QGPYKFIQDSMLDFENQTLD [Caprin1 array peptide N371K] | binds |  |
| QGPYMFIQDSMLDFENQTLD [Caprin1 array peptide N371M] | binds |  |
| QGPYQFIQDSMLDFENQTLD [Caprin1 array peptide N371Q] | binds |  |
